Assay results published in patent US20190127457A1.

What follows are substances tested against human neonatal Fc-receptor (FcRn) (human) (UniProt P55899) (assay: FcRn affinity chromatography).
human neonatal Fc-receptor (FcRn) (human), sequence (P55899 24-297 limits assumed, chain 1 of 2): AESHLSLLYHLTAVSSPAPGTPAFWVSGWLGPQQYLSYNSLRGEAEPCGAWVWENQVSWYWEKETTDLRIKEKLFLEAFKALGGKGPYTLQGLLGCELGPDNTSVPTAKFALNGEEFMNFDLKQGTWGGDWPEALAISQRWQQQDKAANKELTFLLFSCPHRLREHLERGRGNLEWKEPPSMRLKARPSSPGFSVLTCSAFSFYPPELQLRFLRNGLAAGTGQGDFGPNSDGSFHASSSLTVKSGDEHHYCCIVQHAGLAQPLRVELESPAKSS
human neonatal Fc-receptor (FcRn) (human), sequence (P61769 21-119 limits assumed, chain 2 of 2, further chain): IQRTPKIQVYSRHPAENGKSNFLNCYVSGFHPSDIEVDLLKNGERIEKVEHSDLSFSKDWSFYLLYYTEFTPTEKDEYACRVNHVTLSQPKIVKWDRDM

Substance | FcRn-affinity column retention time [min] | RT [min] (retention time on the FcRn affinity column)
IgG1 Fc-region with L234A/L235A/P329G and Y436A (symmetric) | 41.3 | 
bispecific antibody (knobs-into-holes), first chain with I253A/H310A/H435A and second chain with H310A |  | 0
bispecific antibody (knobs-into-holes), first chain with I253A/H310A/H435A and second chain with H435A |  | 0
bispecific antibody (knobs-into-holes), first chain with I253A/H310A/H435A and second chain with I253A/H310A/H435A |  | 0

Each substance was assayed against human neonatal Fc-receptor (FcRn) (human) (UniProt P55899) (assay: FcRn affinity chromatography, symmetrically modified anti-HER2 antibody).

Substance | retention time [min]
anti-HER2 antibody, E258H (symmetric) | 45.6
anti-HER2 antibody, K288E (symmetric) | 45.2
anti-HER2 antibody, K290H (symmetric) | 46.2
anti-HER2 antibody, L309H (symmetric) | 45.5
anti-HER2 antibody, N434H (symmetric) | 52
anti-HER2 antibody, R255D (symmetric) | 41.4
